The assay concerns the target NM fibers (amyloid fibers of NM; also used sonicated as seed) (Saccharomyces cerevisiae) (UniProt P05453). The assay is described as follows: seeded fiber elongation, sedimentation and acrylodan wavelength shift assays, Lineweaver-Burk plot.

The results in this text go back to US20060105320A1.

Usually Km stands for the concentration of substrate that gives half-maximal velocity.

Chain of NM fibers (amyloid fibers of NM; also used sonicated as seed) (Saccharomyces cerevisiae) (P05453 1-253): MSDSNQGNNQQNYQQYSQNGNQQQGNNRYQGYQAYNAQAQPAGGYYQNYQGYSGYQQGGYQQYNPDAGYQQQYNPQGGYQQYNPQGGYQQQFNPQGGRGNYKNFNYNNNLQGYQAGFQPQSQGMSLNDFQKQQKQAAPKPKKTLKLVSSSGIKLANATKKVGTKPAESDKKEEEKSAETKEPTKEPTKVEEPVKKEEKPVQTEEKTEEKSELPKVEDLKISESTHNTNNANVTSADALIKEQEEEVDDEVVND

As to “NM^T158C-acrylodan (soluble) (from UniProt P05453 1-253) (other; other documents disagree on this pair)”, the Km came to 0.12 µM and the kconf/Km (conformational conversion efficiency) stood at 42000 M⁻¹ s⁻¹.
